Experimental findings from publication PMC9253678, “Computer-Aided Design of α-L-Rhamnosidase to Increase the Synthesis Efficiency of Icariside I” (Frontiers in Bioengineering and Biotechnology, 2022) are described below.

Where a chain is given by its changes, count along the chain named. In names and notes the source's numbering stands.

Substrate in the series: COc1ccc(-c2oc3c(CC=C(C)C)c(O[C@@H]4O[C@H](CO)[C@@H](O)[C@H](O)[C@H]4O)cc(O)c3c(=O)c2O[C@@H]2O[C@@H](C)[C@H](O)[C@@H](O)[C@H]2O)cc1
Kind of series: HPLC of icariside I formation, Michaelis-Menten nonlinear fit. The conditions noted are these: pH 4.6, icariin 0.1–4 mg/ml. Type of series: biochemical, Thermotoga petrophila. From the text: HPLC of icariside I formation, Michaelis-Menten nonlinear fit on […]

Where [1] appears, read: optimal conditions of the mutant: 70°C.
[2] abbreviates: optimal conditions of the mutant: 80°C.

B1: TpeRha (Thermotoga petrophila RKU-1; D506A/K579A) (protein)
chain: MIQACDLRCEYLTSPVLGLDVIPRFSWRLKGNGKKQTRYKIIVSDNFDDIERGIGNVWESEKDSSKNLNIEYEGPKLKAYKGYYWRVKLWDEKENGPWSETAYFEMGPLEDWRGKWITMPSPLSFKDPAHRHELFYAMYFRKEFLLNKEVEKARVYVSGLGVYELHLNGKRVGNNVLDPAPTDYNKVALYSTYDVTQYLTTGKNTIGVILGNGRHIRDYGYSKPKLYLQLLVFYKDGSREFICSDETWKVSHGPLKENGIYFGEVYDARDEISGWDSPGFDDRNWSEVEIVEGPSLKAQLIPVIRVCEVIKPKRLWLSSRGTFIVDFGKNISGWVKLRVNNGKRGEKIIIRYAEVLDPSMDRLDTRNLRLARATDEYILKGQGVEIYEPRFTYHGFRYVEVEDYPGTLTSDNIEAMFVHTDVEKVGDFACSSELLNKIHSCVVNSQLANLMGIPTDCPQRDERMGWLGDAQLTVEEAMYNFDMAAFYTKYLMDIKLSQKEDGSISAVAPPYWKRYPSDPAWGTAYATILWYLYFFYEDRRVLEEHYDSLKRYVEFLRKNSPNHLTKLGQHGDWCPPGDAFPKRTPLILTSTWYYYHDTLILSEIAKILGKKEDEHEYRKLAGEIKEAFNRHFLRKVEDHTGRIVCFYRGIKLSPKDRIPTTQTCNVLPLWNKMVPEECREDVFKVLERLIEVDNDTHFDTGIVGTRYILEVLSENGRKDLALKLLLKEDYPSFGYMIKNGATTLWERWEKLEGTGMNSHNHVMLGSVDTWFYKYLSGIKPVAPGWKKIRIEPYFADQIDFVSAKIKTPNGSLEVSWKKQNKEYEIQIIIPVNTVGIFAVPESFKVSAINSKQVSYPSEFELEPGAYNIVLERVREC
notes: codon-optimized synthetic gene in pET-28a, E. coli BL21(DE3), Ni-NTA purified (His tag of vector); model domains span 1-861
In the case of B1, under setting [1], the Km (commonly the substrate concentration at which the rate is half of its maximum) worked out at 1.39 ± 0.45 µM; the Vmax (commonly the rate approached at saturating substrate) amounted to 1.37 µM/min; the kcat – broadly, the maximal rate divided by the concentration of active sites – is 5.68e-05 s⁻¹; the catalytic efficiency (kcat/Km) (commonly the second-order rate constant that governs catalysis at low substrate concentration) worked out at 40.9 M⁻¹ s⁻¹.

B2: TpeRha (Thermotoga petrophila RKU-1; H570A/K579A) (protein)
chain: B1 chain with A506D, H570A
notes: as for B1
In the case of B2, under setting [2], the Km is 0.93 ± 0.08 µM, the maximum rate (Vmax) was 5.56 µM/min, the turnover number (kcat) was found to be 0.000118 s⁻¹ and the kcat/Km is 127 M⁻¹ s⁻¹.
